{
  "source": "paper PMC11302571",
  "origin": "cited, not measured here",
  "target": "BT-R3 (Anopheles gambiae)",
  "note": "pKd: −log10 of the molar value.",
  "data": [
    {"substance": "Cry4B toxin (from UniProt P05519)", "values": [
      {"measurement": "pKd", "result": 7.44}
    ]}
  ]
}
